# Measured values from patent US8604172B2, “Humanized antibody compositions and methods for binding lysophosphatidic acid” (Lpath, Inc., priority 2009, dated 2013).
# What was measured:
# [1] = Direct binding ELISA of anti-LPA mAbs to 18:1 LPA
# Method: The binding of 6 anti-LPA mAbs (B3, B7, B58, A63, B3A6, D22) to 12:0 and 18:1 LPA (0.1 uM) was measured by ELISA. EC50 values were calculated from titration curves using 6 increasing concentrations of purified mAbs (0 to 0.4 ug/ml). EC50 represents the effective antibody concentration with 50% of the maximum binding. Max denotes the maximal binding (expressed as OD450).
# [2] = Specificity of LT3000 against other lipids and proteins; assay type: binding; conditions: over 100 lipids and proteins incl. over 20 bioactive lipids
# Text: (§1) The murine antibody is a full-length IgG1k isotype antibody composed of two identical light chains and two identical heavy chains with a total molecular weight of 155.5 kDa.
# Solubility = assay type: physicochemical; conditions: 6.6 mM phosphate, 154 mM sodium chloride, pH 7.4
# [3] = BiaCore surface plasmon resonance and direct binding ELISA of LT3000
# Text: as §1
# [4] = Competition ELISA (18:1 LPA coat), competitor 18:1 LPA; assay type: binding; conditions: maximum inhibition
# Method: Many isoforms of LPA have been identified to be biologically active and it is preferable that the mAb recognize all of them to some extent to be of therapeutic relevance. The specificity of the anti-LPA mAbs was evaluated utilizing a competition assay in which the competitor lipid was added to the antibody-immobilized lipid mixture.
# Competition ELISA assays were performed with the anti-LPA mAbs to assess their specificity. 18:1 LPA was captured on ELISA plates. Each competitor lipid (up to 10 uM) was serially diluted in BSA (1 mg/ml)-PBS and then incubated with the mAbs (3 nM). Mixtures were then transferred to LPA coated wells and the amount of bound antibody was measured with a secondary antibody. Data are normalized to maximum signal (A450) and are expressed as percent inhibition. Assays were performed in triplicate. IC50: Half maximum inhibition concentration; MI: Maximum inhibition (% of binding in the absence of inhibitor); - - -: not estimated because of weak inhibition. A high inhibition result indicates recognition of the competitor lipid by the antibody.
# Thermostability (Tm) = assay type: physicochemical
# Method: The thermostability of the humanized antibodies were studied by measuring their LPA-binding affinity (EC50) after heating using the direct binding ELISA. Antibodies dissolved in PBS (Cellgo, Cat. No 021-040) were diluted to 25 ug/ml and incubated at 60° C., 65° C., 70° C., 75° C. and 80° C. for 10 min. Prior to increasing the temperature, 10 ul of each sample was removed and diluted with 90 ul of PBS and stored on ice. The samples were then vortexed briefly and the insoluble material was removed by centrifugation for 1 min at 13,000 rpm. The binding activity of the supernatant was determined using the direct LPA-binding ELISA and compared to a control, which consisted of the same sample without heat treatment.
# [5] = system: microblood vessel density in matrigel plugs; experiment: Matrigel plug assay (VEGF/bFGF), CD31 microvessel density; assay type: in vivo, C57BL/6 mice; conditions: for Percent Inhibition: vs control
# Method: Female C57BL/6 mice around 8 to 10-weeks old and Matrigel Matrix High Concentration purchased from BD BioSciences (Franklin Lakes, N.J. (from BD) mixed with 50 ng/ml VEGF and 50 ng/ml bFGF, heparin 3 ng/ml as angiogenic stimuli were used for this study. There were five groups of mice, 10 Matrigel plugs were inoculated into five mice for each group on Day 0. One mouse group served as a control; four others receive drug treatment in four different doses by ip injection every other day. All treatments start at Day-1 and finish at Day 8.
# Thirty C57bl/6 mice were implanted with Matrigel plugs in order to obtain 25 healthy mice with two well-shaped Matrigel plugs per mouse. On Day 0, 500 ul Matrigel at […] was subcutaneously injected to each side of the mouse, injection area was shaved. To increase the contact area of injected Matrigel into subcutaneous tissues and form a round shape plug, a wide subcutaneous pocket was formed by swaying the needlepoint right and left after a routine subcutaneous insertion. The injection was done rapidly with an appropriate size needle (21G-25G) to ensure the entire content was delivered in one plug. The injected Matrigel rapidly formed a single solid gel plug.
# Animals were treated with 8 or 2 mg/kg of antibody or saline beginning 1 day prior to the implantation of Matrigel plugs or with the vehicle. Treatments were administered ip, on a q2d schedule.
# Plugs from each group were collected at Day 12. The mice were euthanized and mouse skin was pulled back to expose the plug. The plugs was dissected out and fixed for histological analysis. Sections of 5 μm from paraffin-embedded plugs were stained with anti-CD-31 antibodies. Blood vessel density in a cross sectional area of each Matrigel plugs were analyzed. For each treatment group, at least six or more Matrigel plugs were quantitatively analyzed to assess any statistical significant difference of microvessel density between groups.
# [6] = Competition ELISA specificity, competitor DSPA; assay type: binding; conditions: maximum inhibition, n = 3
# Method: (§2) The specificity of the anti-LPA mAbs was assessed for their binding to LPA related biolipids such as distearoyl-phosphatidic acid, lysophosphatidylcholine, S1P, ceramide and ceramide-1-phosphate.
# [7] = BIAcore 3000 kinetics, LPA immobilized on sensor chip; assay type: binding
# Method: The kinetics parameters ka (association rate constant), kd (disassociation rate constant) and KD ([…] equilibrium constant) were determined for the 6 lead candidates using the BIAcore 3000 Biosensor machine. In this study, LPA was immobilized on the sensor surface and the anti-LPA mAbs were flowed in solution across the surface.
# LPA was immobilized to the sensor chip at densities ranging 150 resonance units. Dilutions of each mAb were passed over the immobilized LPA and kinetic constants were obtained by nonlinear regression of association/dissociation phases. Errors are given as the standard deviation using at least three determinations in duplicate runs. Apparent affinities were determined by […].
# ka=Association rate constant in M^−1s^−1kd=Dissociation rate constant in s^−1
# [8] = Competition ELISA specificity, competitor LPC; assay type: binding; conditions: maximum inhibition, n = 3
# Method: as §2
molecule,measurement,setting,value
"LT3000: Murine anti-LPA monoclonal antibody clone B7, IgG1k, renamed Lpathomab, also known as LT3000; hybridoma 504B7.1, ATCC PTA-8420 (antibody, V domains shown) VH: QVQLQQSGAELVRPGTSVKVSCKASGYGFINYLIEWIKQRPGQGLEWIGLINPGSDYTNYNENFKGKATLTADKSSSTAYMHLSSLTSEDSAVYFCARRFGYYGSGNYFDYWGQGTTLTVSS VL: DVVMTQTPLSLPVSLGDQASISCTSGQSLVHINGNTYLHWYLQKPGQSPKLLIYKVSNLFSGVPDRFSGSGSGTDFTLKISRVEAEDLGVYFCSQSTHFPFTFGTGTKLEIK",EC50,"[1]; 18:1 LPA 0.1 uM, mAb 0 to 0.4 ug/ml",0.274 nM
same,"Max (OD450), 18:1 LPA",[1]; maximal binding,0.973 OD450
same,binding affinity for other bioactive lipids and proteins,[2],no binding affinity
same,Solubility,Solubility,">40 mg/mL in 6.6 mM phosphate, 154 mM sodium"
same,Kd,[3],0.001 to 0.05 nM
same,"MI, 18:1 LPA",[4],100%
same,Tm,"Thermostability (Tm); 10 min at 60-80° C., LPA binding by direct ELISA",67 °C
same,Apparent Tm,Thermostability (Tm); pH 7.4,67 °C at pH 7.4
same,"microblood vessel density, Average",[5]; 2 mg/kg ip q2d,34
same,Percent Inhibition,[5]; 2 mg/kg ip q2d,47.0%
same,"microblood vessel density, Average",[5]; 8 mg/kg ip q2d,41.5
same,Percent Inhibition,[5]; 8 mg/kg ip q2d,35.4%
same,"MI (%), DSPA",[6],0%
same,Kd,[7]; apparent affinity,0.0016 ± 0.0001 nM
same,ka (M^−1 s^−1),"[7]; association rate constant, ± standard deviation",6.2 ± 0.1 × 10^5 M^−1 s^−1
same,kd,[7]; dissociation rate constant,1e-06 s⁻¹
same,"MI (%), LPC",[8],0%
